Assay results: patent US20240424125A1 (Zymeworks, published 2024)
Changes are numbered by the printed parent chain.

Legend:
[1] = biological target: T1, recombinant His-tagged human FRα (ACROBiosystems) (human, UniProt P15328 25-233); assay: SPR (Biacore T200): hFRα amine-coupled to CM5 chip at medium-low antigen density, one-armed antibody injected, 1:1 Langmuir fit, mean of n=2
T1 construct: also called hFRα; hFRα antigen; not shown: His tag
Description: (§1) CM5 Series S sensor chip, Biacore™ amine coupling kit (NHS, EDC and 1 M ethanolamine), and 10 mM sodium acetate buffers were purchased from GE Healthcare Life Science (Mississauga, ON, Canada). PBS running buffer with 0.05% Tween20 (PBST) was purchased from Teknova Inc. (Hollister, CA). Recombinant human FRα was purchased from ACRObiosystems (Newark, DE).
(§2) Screening of the variants for binding to hFRα antigen was conducted in two steps: capture of hFRα onto surface, followed by injection of three to five concentrations of variant. The hFRα surface was prepared on a CM5 Series S sensor chip by standard amine coupling methods as described by the manufacturer (GE Healthcare Life Science, Mississauga, ON, Canada). The immobilization of the hFRα was performed using Biacore™ T200 immobilization wizard with an amine coupling method aiming for resonance units (RUs) ranging from 5 to 200 RUs. Using multi-cycle kinetics, three to five concentrations of a two-fold dilution series of samples starting at 300 nM with a blank buffer control were injected at 50 uL/min for 180s with a 600s dissociation phase, resulting in a set of sensorgrams with a buffer blank reference. The hFRα surface was regenerated to prepare for the next injection cycle by one pulse of 10 mM glycine/HCl pH 1.5 for 30s at 30 uL/min. Blank-subtracted sensorgrams were analyzed using Biacore™ T200 Evaluation Software v3.0. The blank-subtracted sensorgrams were then fit to the 1:1 Langmuir binding model.

[2] = biological target: T1, recombinant His-tagged human FRα …; assay: SPR (Biacore T200): hFRα amine-coupled to CM5 chip at medium antigen density, one-armed antibody injected, 1:1 Langmuir fit, mean of n=2
Description: as §1, §2

[3] = biological target: T1, recombinant His-tagged human FRα …; assay: SPR (Biacore T200): hFRα amine-coupled to CM5 chip at high antigen density, one-armed antibody injected, 1:1 Langmuir fit, mean of n=2
Description: as §1, §2

[4] = biological target: T1, recombinant His-tagged human FRα …; assay: BLI (Octet RED96) as in Example 8: antibody captured, His-tagged hFRα as analyte, mean of n=2
Description: (§3) The assay buffer used was KB buffer (kinetics buffer, composed of PBS pH 7.4, 0.1% BSA, 0.02% Tween 20, 0.05% sodium azide) supplemented with 0.06% Tween 20 and in some instances also with 1% BSA. The experiment was conducted at 30° C. with a shake speed of 1000 rpm.
(§4) Data analysis was performed using Data Analysis Software 9.0 (ForteBio, Fremont CA). The reference-subtracted binding curves were globally fitted to the 1:1 interaction model to generate the binding kinetic parameters kₒₙ, koff, and the dissociation constant KD.

human FRα on cells [5] = biological target: T2, human FRα on cells (human, UniProt P15328 25-234); assay: apparent Kd, flow cytometry on IGROV-1 cells (endogenous FRα), as in Example 16
T2 construct: Transiently expressed on HEK293-6e, CHO-S or HEK293 microarray cells, or endogenous on JEG-3, HEC-1-A, IGROV-1, OVCAR-3, H2110, KB-HeLa and T-47D cells; also called human folate receptor alpha; FOLR1
Description: (§5) Briefly, cells were seeded at 50,000 cells/well in V-bottom 96-well plates and treated with antibody for 24 hours at 4° C. to prevent internalization. […] Following incubation and washing, fluorescence was detected by flow cytometry on a BD LSRFortessa™ Cell Analyzer (BD Biosciences, Franklin Lake, NJ) with 1,000 minimum events collected per well. AF647/APC-A GeoMean (fluorescence signal geometric mean, proportional to anti-Human AF647 binding) in live cell population was plotted using GraphPad Prism Version 9 (GraphPad Software, San Diego, CA).

human FRα on cells [6] = biological target: T2, human FRα on cells; assay: apparent Kd, flow cytometry on JEG-3 cells (endogenous FRα), as in Example 16
Description: as §5

[7] = biological target: T1, recombinant His-tagged human FRα …; assay: BLI (Octet RED96); end of the range tied to v35305 by Table 20.1
Description: as §3, §4

FCGR2A = biological target: T3, FCGR2A (human, UniProt P12318); assay: Retrogenix cell microarray, fixed cell confirmation screen, HEK293 cells overexpressing the protein, v36675 at 20 µg/mL, detection with AF647 anti-hIgG H+L; the text calls FcgR signals Fc-domain mediated
T3 construct: overexpressed on reverse-transfected HEK293 cells, fixed; One of the FcgR receptors that the text names only as a group
T3 sequence (receptor chain, looked up): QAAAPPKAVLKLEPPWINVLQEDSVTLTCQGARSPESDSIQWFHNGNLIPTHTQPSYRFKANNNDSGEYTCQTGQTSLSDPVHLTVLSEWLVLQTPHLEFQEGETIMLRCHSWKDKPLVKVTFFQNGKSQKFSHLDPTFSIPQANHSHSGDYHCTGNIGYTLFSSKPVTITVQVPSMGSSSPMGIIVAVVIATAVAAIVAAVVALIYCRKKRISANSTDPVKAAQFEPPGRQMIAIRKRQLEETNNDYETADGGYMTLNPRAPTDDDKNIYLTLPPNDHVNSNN
Description: (§6) Fluorescent images were analysed and quantitated (for transfection) using ImageQuant™ software (Version 8.2; GE Healthcare, Chicago, IL). A protein hit was defined as a duplicate spot showing an increased signal compared to background levels and was identified by visual inspection using the images gridded on the ImageQuant™ software. Hits were classified as strong, medium, weak or very weak by visual inspection by two experienced scientists based on the intensity of the duplicate spots.

FCGR1A = biological target: T4, FCGR1A (human, UniProt P12314); assay: as above
T4 construct: overexpressed on reverse-transfected HEK293 cells, fixed; One of the FcgR receptors that the text names only as a group
Description: as §6

[8] = biological target: T1, recombinant His-tagged human FRα …; assay: BLI (Octet RED96); end of the range tied to v35348 by Table 20.1
Description: as §3, §4

human FRα on cells [9] = biological target: T2, human FRα on cells; assay: apparent Kd, flow cytometry, CHO-S cells transiently expressing human FRα, 24 h at 4°C
Description: Briefly, CHO-S cells were transfected for −24 hours to transiently express human or cynomolgus monkey FRα, 1 ug DNA per 1 million cells. Following transfection, cells were seeded at 50,000 cells/well in V-bottom 96-well plates and treated with antibody for 24 hours at 4° C. to prevent internalization. […] Following incubation and washing, fluorescence was detected by flow cytometry on a BD LSRFortessa™ Cell Analyzer (BD Biosciences, Franklin Lake, NJ).

[10] = biological target: T1, recombinant His-tagged human FRα …; assay: BLI (Octet RED96): antibody on anti-human IgG Fc capture biosensor, His-tagged hFRα as analyte, 1:1 global fit, mean of n=2
Description: as §3, §4

[11] = biological target: T1, recombinant His-tagged human FRα …; assay: BLI (Octet RED96); end of the range tied to v30394 by Table 8.1
Description: as §3, §4

[12] = biological target: T1, recombinant His-tagged human FRα …; assay: BLI (Octet RED96); end of the range tied to v31426 by Table 8.1
Description: as §3, §4

T1 sequence (P15328 25-233 limits assumed): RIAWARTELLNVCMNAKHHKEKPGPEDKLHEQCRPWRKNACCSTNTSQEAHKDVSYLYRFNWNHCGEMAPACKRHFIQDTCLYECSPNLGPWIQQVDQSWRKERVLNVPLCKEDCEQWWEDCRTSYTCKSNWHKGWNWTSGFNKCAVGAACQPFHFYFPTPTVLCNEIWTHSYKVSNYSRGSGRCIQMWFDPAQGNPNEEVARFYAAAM
T2 sequence (P15328 25-234 limits assumed): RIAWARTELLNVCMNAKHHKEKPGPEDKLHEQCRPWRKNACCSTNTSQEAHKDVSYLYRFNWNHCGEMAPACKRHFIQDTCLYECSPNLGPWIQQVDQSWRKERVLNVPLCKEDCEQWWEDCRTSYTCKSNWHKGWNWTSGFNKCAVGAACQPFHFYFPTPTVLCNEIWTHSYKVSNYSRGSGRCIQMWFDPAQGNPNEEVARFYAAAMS
T4 sequence (P12314 16-374 limits assumed): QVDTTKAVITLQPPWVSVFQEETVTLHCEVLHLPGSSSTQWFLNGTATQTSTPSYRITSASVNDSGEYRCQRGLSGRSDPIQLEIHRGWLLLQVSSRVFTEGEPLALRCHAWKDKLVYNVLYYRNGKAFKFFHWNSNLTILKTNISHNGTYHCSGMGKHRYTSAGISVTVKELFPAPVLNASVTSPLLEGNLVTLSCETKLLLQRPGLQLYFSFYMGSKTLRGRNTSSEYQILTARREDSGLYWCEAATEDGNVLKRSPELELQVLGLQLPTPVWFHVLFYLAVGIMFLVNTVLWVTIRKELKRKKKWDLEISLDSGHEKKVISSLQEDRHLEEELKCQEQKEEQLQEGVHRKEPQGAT

B1: v32596 (antibody, V domains shown)
VH: QSVKESEGGLFKPTDTLTLTCTVSGFSLSSYGVSWVRQAPGNGLEWIGAVNSGGSAYYANWAKSRSTITRNTNLFTVTLKMTSLAVADTATYFCARSGSGYPMDYLAIWGPGTLVTVSS
VL: AYDMTQTPASVEVAVGGTVTIKCQASQSIGDWLAWYQQKPGQPPRLLIYEASTLASGVPSRFSGSGSGTQFTLTISGVECADAATYYCQQGYGRSNVDNIFGGGTEVVVK
notes: One-armed antibody (OAA) format, said to be the equivalent of the FSA v23924; also called OAA v23924 equivalent; one-armed antibody equivalent of v23924
Question: Which Kd [1] does the source give for B1 here?
Answer: 37.9 nM

Question: And the Kd [2]?
Answer: 30.3 nM

Question: And the Kd [3]?
Answer: 30 nM

B2: v35356 (antibody, human IgG1, kappa, V domains shown)
VH: EVQLLESGGGLVQPGGSLRLSCAVSGFSLSSYGVSWVRQAPGKGLEWIGAVNSGGSAYYADSFKGRSTISRDNSKNTVYLQMNSLRAEDTAVYYCARSGSGYPMDYHPIWGQGTLVTVSS
VL: DYQMTQSPSSVSASVGDRVTITCRASQSIGDWLAWYQQKPGKAPKLLIYEASTLASGVPSRFSGSGSGTDFTLTISSVQPEDAATYYCQQGYGRWHILNIFGGGTKVEVKR
Question: What does the source list for B2?
Answer: Kd [4]: 4.98 nM; Kd (human FRα on cells [5]): 1.31 nM; Kd (human FRα on cells [6]): 0.44 nM

B3: v32597 (antibody, V domains shown)
VH: B2 VH with F63V, H107L, P108A
VL: DYQMTQSPSSVSASVGDRVTITCRASQSIGDWLAWYQQKPGKAPKLLIYEASTLASGVPSRFSGSGSGTDFTLTISSVQPEDAATYYCQQGYGRSNVDNIFGGGTKVEVK
notes: One-armed antibody (OAA) format, equivalent of v30384; also called OAA v30384 equivalent; one-armed antibody equivalent of v30384
Question: What does the source list for B3?
Answer: Kd [1]: 146 nM; Kd [2]: 139 nM; Kd [3]: 143 nM

B4: v35305 (antibody, human IgG1, kappa, V domains shown)
VH: B2 VH with S31L, F63V, H107L, P108A
VL: B2 VL with G30W, D31Y, W95S, H96N, I97V, L98D
Question: What does the source list for B4?
Answer: fold improvement of affinity over the parental humanized antibody v30384 [7]: 12 fold; Kd [4]: 10.8 nM

B5: v36675 (antibody, human IgG1, kappa)
heavy: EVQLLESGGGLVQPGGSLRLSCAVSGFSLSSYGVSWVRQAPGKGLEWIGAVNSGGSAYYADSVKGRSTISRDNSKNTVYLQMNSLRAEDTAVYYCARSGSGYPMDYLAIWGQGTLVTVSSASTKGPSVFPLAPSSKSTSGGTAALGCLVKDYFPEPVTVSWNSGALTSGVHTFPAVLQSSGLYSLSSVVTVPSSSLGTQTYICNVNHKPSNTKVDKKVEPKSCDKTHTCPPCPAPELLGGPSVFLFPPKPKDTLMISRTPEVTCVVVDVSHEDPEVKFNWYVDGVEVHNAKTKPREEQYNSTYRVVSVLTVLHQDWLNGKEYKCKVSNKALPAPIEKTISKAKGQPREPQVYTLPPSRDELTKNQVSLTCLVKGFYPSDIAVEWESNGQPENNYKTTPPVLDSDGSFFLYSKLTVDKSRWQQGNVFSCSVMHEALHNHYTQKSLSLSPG
light: DYQMTQSPSSVSASVGDRVTITCRASQSIGDWLAWYQQKPGKAPKLLIYEASTLASGVPSRFSGSGSGTDFTLTISSVQPEDAATYYCQQGYGRSNVDNIFGGGTKVEVKRTVAAPSVFIFPPSDEQLKSGTASVVCLLNNFYPREAKVQWKVDNALQSGNSQESVTEQDSKDSTYSLSSTLTLSKADYEKHKVYACEVTHQGLSSPVTKSFNRGEC
notes: Same paratopes as v30384 but HomoFc instead of HetFc; also called humanized variant v36675
Question: Does B5 bind (FCGR2A)?
Answer: binds

Question: Does B5 bind (FCGR1A)?
Answer: binds

B6: v32598 (antibody, V domains shown)
VH: B2 VH with L4V, S62W, F63A, H107L, P108A
VL: B3 VL
notes: One-armed antibody (OAA) format, equivalent of v30399; also called OAA v30399 equivalent; one-armed antibody equivalent of v30399
Question: How did the Kd [1] turn out when B6 was run?
Answer: 91.5 nM

Question: And the Kd [2]?
Answer: 80.8 nM

Question: And the Kd [3]?
Answer: 82 nM

B7: v35348 (antibody, human IgG1, kappa, V domains shown)
VH: B2 VH with S31L
VL: B2 VL
Question: How did the “fold improvement of affinity over the parental humanized antibody v30384” value [8] turn out when B7 was run?
Answer: 58 fold

Question: And the Kd [4]?
Answer: 2.2 nM

B8: Palivizumab (anti-RSV) (v22277) (antibody, V domains shown)
VH: QVTLRESGPALVKPTQTLTLTCTFSGFSLSTSGMSVGWIRQPPGKALEWLADIWWDDKKDYNPSLKSRLTISKDTSKNQVVLKVTNMDPADTATYYCARSMITNWYFDVWGAGTTVTVSS
VL: DIQMTQSPSTLSASVGDRVTITCKCQLSVGYMHWYQQKPGKAPKLLIYDTSKLASGVPSRFSGSGSGTEFTLTISSLQPDDFATYYCFQGSGYPFTFGGGTKLEIK
Question: With B8 as the binder, how does the Kd (human FRα on cells [9]) read?
Answer: > 50 nM

B9: v30394 (antibody, human IgG1, kappa)
heavy 1: EVQLLESGGGLVQPGGSLRLSCAVSGFSLSSYGVSWVRQAPGKGLEWIGAVNSGGSAYYADWAKGRSTISRDNSKNTVYLQMNSLRAEDTAVYYCARSGSGYPMDYLAIWGQGTLVTVSSASTKGPSVFPLAPSSKSTSGGTAALGCLVKDYFPEPVTVSWNSGALTSGVHTFPAVLQSSGLYSLSSVVTVPSSSLGTQTYICNVNHKPSNTKVDKKVEPKSCDKTHTCPPCPAPELLGGPSVFLFPPKPKDTLMISRTPEVTCVVVDVSHEDPEVKFNWYVDGVEVHNAKTKPREEQYNSTYRVVSVLTVLHQDWLNGKEYKCKVSNKALPAPIEKTISKAKGQPREPQVYVYPPSRDELTKNQVSLTCLVKGFYPSDIAVEWESNGQPENNYKTTPPVLDSDGSFALVSKLTVDKSRWQQGNVFSCSVMHEALHNHYTQKSLSLSPG
heavy 2: not shown
light: B5 light
notes: Humanized IgG1/kappa, HetFc; also called 4H4L
Question: How did the Kd [10] turn out when B9 was run?
Answer: 63 nM

Question: What about the “fold reduced affinity compared to the parental chimera antibody v23924” value [11] of the same binder?
Answer: 2 fold

B10: v31426 (antibody, human IgG1, kappa)
heavy: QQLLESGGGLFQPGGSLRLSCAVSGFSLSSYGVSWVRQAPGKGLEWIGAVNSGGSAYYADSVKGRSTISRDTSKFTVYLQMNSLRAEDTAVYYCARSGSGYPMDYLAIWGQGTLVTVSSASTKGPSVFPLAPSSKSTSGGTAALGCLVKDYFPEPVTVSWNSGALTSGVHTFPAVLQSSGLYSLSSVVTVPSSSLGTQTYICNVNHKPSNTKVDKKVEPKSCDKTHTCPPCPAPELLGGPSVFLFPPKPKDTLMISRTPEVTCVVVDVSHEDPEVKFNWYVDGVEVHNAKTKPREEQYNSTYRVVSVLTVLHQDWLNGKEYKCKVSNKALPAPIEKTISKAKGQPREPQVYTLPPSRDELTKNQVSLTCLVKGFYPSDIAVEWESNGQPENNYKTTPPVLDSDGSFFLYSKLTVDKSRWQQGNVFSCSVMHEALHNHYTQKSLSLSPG
light: B5 light
notes: Humanized IgG1/kappa, HomoFc; also called 3gH4L
Question: With B10 as the binder, how does the Kd [10] read?
Answer: 210 nM

Question: And the “fold reduced affinity compared to the parental chimera antibody v23924” value [12]?
Answer: 8 fold
